Assay [1] deals with cross-linked Aα221-610 oligomers (factor XIIIa cross-linked) (human). Description: SPR. In general terms: Surface plasmon resonance follows binding to a sensor surface in real time, without labels.
Assay [2] deals with recombinant Aα221-610 fragment corresponding to the human fibrinogen αC region (non-cross-linked) (human). Description: SEC. On the technique in general: Size exclusion chromatography separates by hydrodynamic size, large species first.
For assay [3] the target is unchanged. Description: SEC. This is another data set of the same source.
For assay [4] the target is unchanged. Description: SEC. This is another data set of the same source.
Assay [5] has the same target. Kind of assay: SEC. This is another data set of the same source.
Assay [6] has the same target. Kind of assay: SEC. The source holds these as a separate data set.

Read-outs that look alike come from different tables or passages of the source.

These results are taken from PMC3172333.

With human Glu-plasminogen (natural protein), the Kd (commonly the equilibrium constant for the complex coming apart) in assay [1] came out at 458 nM.

As to “recombinant Aα221-610 fragment corresponding to the human fibrinogen αC region (non-cross-linked) (domain or fragment)”, the percent oligomers in assay [2] turned out to be 15%; in assay [3], 60%; in assay [4], 5%; in assay [5], 22%. For the same substance, the percent monomer in assay [4] was 60%; in assay [6] it was 10%. For the same substance, the percent oligomers (after overnight incubation) in assay [4] is 11%. Further, the percent oligomers (immediately after dilution) in assay [4] amounted to 18%.

“recombinant single-chain tissue type plasminogen activator (enzyme)” came in with a Kd in assay [1] of 440 nM.
